Laboratory results taken from the supplement of paper PMC12636428.

tested on: Saccharomyces cerevisiae; assay: transcriptional activation domain activity (GFP:mCherry ratio, weighted mean of sorted bins, harmonized to initial dataset scale) (arbitrary fluorescence ratio units); higher = stronger transcriptional activation; conditions: beta-estradiol 1 µM; induction time 4 h
How it was run: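 In diploid yeast carrying a GFP reporter, barcoded protein tiles fused to an estradiol-inducible synthetic transcription factor were integrated at the URA3 locus. Cultures diluted 1:5 into SC with 1 uM beta-estradiol were kept at 30 °C for 4 hours, then sorted by GFP:mCherry ratio into 8 bins before barcode sequencing. Tiles with under 50 reads were excluded. The activation activity reported here is the read-weighted mean of bin median fluorescence, averaged across barcodes and linearly rescaled to the initial dataset.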

Row | Sequence | transcriptional activation domain activity
1 | IMGRYCAKAVWLDTRQHLLNKLSQIGFNWDVLKSLVKSWWHYYSLAVMLWLYQ | 69200
2 | VLLCQMEDAVLSSSFAIKANTAMSQNTAEEFFNISEEEALNQLLENNNFDAFW | 140000
3 | VIEGNTSPAVGIEMCHVMLCSLVKELYQRVAASGMTFVLSVSVECLLSQTLQT | 31800
4 | GANAGGARPSSRTSNKKPTSSASPPNDSNDSNKKKDADAKKHDGKKAERGGGR | 29100
5 | KRRRWQLALLLLFWFAWLATFITVIHNSRFVSKVNGQDPYLLSCTSVLWSKNN | 47100
6 | WLSDENDGASHINVNKDSSSVLSASSSTWFEPLENIISSASSSSIGSPIEDQF | 60800
7 | SFTNFLMALFGVLLGAIFLSIYTYYTFWRGCRSTILPCISSTWYKAFTILFYL | 47600
8 | VMPTWLWMPLLLVANFFCRFFLFHLIICSYIYPLLYVQLMWVFWFIWRGVFSF | 55700
9 | ITWSQLRRRFTPGFETFLDIGIERGWYSCNNTLQVMVFRWVFIPWLQQELSAY | 30600
10 | RDKKKARAKGGAGAAGGEKKAEGAAAGDAAAAADGEDEEREGKRRKIARAAEG | 42200
11 | CVFLSILCLFIHLLLIVSLLLFFCHCLFFSVPITLVCFSMTIHLTPKIFILLF | 52700
12 | AFHKLQLERGWTGAKMVMHLLKVYFSWQYGHHCTVYRPIFMRDMALGGPYFSQ | 55200
13 | ARVLGKKNTLEGLASTIRGTVRFVRETCYAVIYCMTRLDMQFYGFLELPGPLA | 39600
14 | YMYSAFMRFFILGWPSYLVVVASIAVVLLLHILYFLVQLQLKNIFLLLLHCFA | 60400
15 | EKEARHAGRESRKAPEVREHRSSRRKDKERERSARPDNERRKTHVDGEDPEER | 23800
16 | MLCFIDLLIFGISLCFLSLLLFLSFFLLFFFFFLVFSEEFVLLHSAAWSFILS | 41200
17 | MLLLLITHIGIAILFVCWNPRFSCPNQSPDQQGTCRLFNMYILISSWIIPAFL | 55600
18 | FVLLLFTCVHVFVVYLVVIAFFTVNICLLWTIALSFMLWYIFFCNLSCSTWPL | 54300
19 | KQYCVRPNSGRIEPGKDVEVQILLQAMKEDPPPDAKCRDKFLVQSVAVSADKE | 47000
20 | AFLVGGGSAFWVLGYGLFYWASRLSLDSFTSVMLYLGYLLLLVLLVFLVTGTI | 42700
21 | RMGMTQELLALVTGLAHYLKILIRIALTGALKLERDYVLREAISSFLDKLHLL | 69700

Row | Sequence | transcriptional activation domain activity
22 | TINLSLPPRDRYVLVATDYAHVLREMPCLYDEAVQHMKLPAGFFHLLGRILLR | 58100
23 | GGDSVVDILFSQTSATEFVTVGGTGNVYHWDMEYSFSRNDDDNEDEVRVAAPE | 38300
24 | EEEESAAAAKKMAAVKTRKARAGSPKTKSARKATSTRPTSKTKGGAKAKRAAA | 20900
25 | MMSMFWGWHGQRNGVFSGVLGFGILLVTWFFFFFKFSPHILLIISVYGHFGFF | 81500
26 | MFPYSWFRLLFRLLFLWPFLLFQLLFPWPTTLLILWPFRLLILWPIRLLILWP | 73200
27 | MIHGLQSYNLSFLIFFLFLLSSLFVLFVMLSKFAFVLFVDTLYCLIPYVFLFF | 42500
28 | KLWAKRRAIYSNVMGFLGGVAWAMLTARVCQLYPNACAASIVNRFFRIMYQWN | 49800
29 | MLTEFCFNMLGRHDGKGLISNAVLNAWLKQLSDYFRARFTIWCRINILMDLYR | 42100
30 | HQLYTDWLYLWWIAYTNKMHGRIYIILKESLKNLPIFGWGAQFYNFIFLCRNW | 56400
31 | MVRSGILKCELLQNLSTVYPTIYLVLCCYSIVFFFNACLSFLVLFMHFAFLVK | 52800
32 | MCASVILFCLVFSSSYLLAIFKDCYLALLYYMQCWSMYYLFSDFVCHYPISKG | 72200
33 | GYLHHILKLFDCAFGISYPQLHHVLEVRTRALLLAGLNLTFVLDGPLPMWKAA | 54900
34 | LLNIGNGGVPKNTNVHLGAQFFYLSFLEFILSCLTLCSRSWAWFHVVCVVHLR | 62300
35 | MIAVFFYYFLLFFYITCEFPVLCCGSLFFFFFFFFCFCDIYCISFCLLAHYHY | 44300
36 | HRAGTSGQSLQQDDVLHVTRATLVELGNTSISTVIASLLVLLEDLARPYAAVA | 36000
37 | LYMLKIVNWAVLYASLILATLLWCTIFIIYRILKVGGVTAGMRAYHRVIELLV | 83500
38 | RPSLASSTATATATTTRPAADAASTTRAPRASLAPSTKPTTTRPAVAAAATRT | 33500
39 | AKKESKADGEEKPKAARGKKRKVDEEAEEEEGAEKPASKKAKPVSKAKSAAGS | 17000
40 | EKNEKPAPVAPAEGAVAEAKEGKSQKKEKKEKKPAEEGSSSKKGGKSAPAAAE | 33700
41 | TTGCREGFDWTPLSSVRYGGICGGRLFSICHTTFEGLAIIGMPNILICNYNVT | 43300
42 | MVFFFFFFFLEGGGLVGWLCSALIFPLSFFLSSKLCLLLPLYYYSNCVFFFLC | 75600

Row | Sequence | transcriptional activation domain activity
43 | ARLRALEIIRAGHEGGYDGFFWGAWIPGLFHGKMTDIIALLLTHWGNVRNPAS | 65700
44 | KALLLLLRIAHLQFNKIPLTLIFDQFLNVAILCDMYSKGNEKYLLISWVFHRE | 28800
45 | MLLHLLPILCPDCIFSASITFAVLSFLLSPCPLLPFSLLPLLCFFISIILRSV | 42100
46 | IGLPGFTWVYVARYGSVFNLLGLGVIGVVWNWGLAAVSISNYGNCWERLINWR | 54300
47 | MSFFLFFVSCLLLFFVFVLFLFFSFRSFLSSVPFPFRFCFLFLFALSLFFLLV | 41400
48 | MLRLLFWYLLIFVCLFCSSSPSYLSIFCLFFLCLIFIPSSSYILLPFLFLTLY | 37500
49 | VFLHHFRRAIFPLCNLVCSSWNVITFSHPWMIFAIIMFLHWSWILGLQKGMLI | 83600
50 | SDEEEAEVIPAKKARGKKAPVKQEEIQSDEEVLTAKKPAKQARGKKAPAAAVK | 30600
51 | MRRLPTAMVSCFGVYAVSHNLSLPFVSSLFPCFIQFCARIILFSLVGYSFWSL | 74500
52 | MVQNWEFFVFFFSFFIFSFCEVYMCAVCGLWCGSPGKLLGLLFLVLLCSLFFF | 40300
53 | EEEPATKKQKTDDAAATTNGDAKPKGKPGRPKKAESEKKSPAKKRDPKKAATA | 33700
54 | MLCFLYHLVSMCTLLHCLYLLPVLFLIFYASFFLLLACTWSSVRCLISLFFCL | 57300
55 | YMIGLLFRTYFKLKSLNLCKNVLRAVSVSELPSLSEFPKAHQVTFRYYTGVLS | 70100
56 | FFPLGFLMRFLLFDLSLSCFLSFPLFLFSLPTTFLLYYYFPPHTIIMSCGSPI | 43500
57 | EDEEESSKEETEKQRNKLRELIYEFIAKDVASRVELAKYWLSEEWNCAVGPQT | 35300
58 | KLGAAGGGRGSERDKRRRGEGERGGGDAVARAGEGEGRGRGRRRRKRSAACAG | 39200
59 | YYVILLSIKLFGINSSLWALLITLTNWFNLYLSCRLIPNNIEGILTIIALYYW | 66500
60 | KAETTAAKDAGAEPEAKPMRGGGREKKRDAEEAVKKEAVKEKPSKGSTKPASK | < 6570
61 | NRTLSTKDLIVLRLCSSFFAYFIISLFYCLMNLAFQIVVDRKFGQAGFIVFWM | 62100
62 | PIMVVTLPLPAQITQYYPITLVSVLQWFAFWSFSALLTIPWLLCVYQLVTHSL | 54400
63 | KVSFLFGVWFFFSFEVLGFFDFFPSFLSFRRIFFIIFILYFIIYLYVVFFVSF | 73700

Row | Sequence | transcriptional activation domain activity
64 | DKRLENAQTLIPDGMKVRPMEDCITEAPTLIMARFNIVLLYLKTRVVLHRNYL | 62400
65 | MHRATNYYFSFSALLYLVFIFLRCSLALGLFFCFMFLSFEFFCFLMVLCLFCI | 33200
66 | KGKGRENVPESESESEEDGDSSPPKAPVRGARGRGRGASRGRGRGRAPAPAAA | < 6570
67 | DADEAEGAPDAAGEGAAKKKKKRKPRKKKKGGAGGGGGGGPKVQTSPPRVPIH | 11400
68 | AGAAAASTAAEADGEKDGEEGETKPAAPAKKPRKARAKKQVKSEEKAVEEATG | 19300
69 | VLAMVAQIRTGLWLLHYRDFMLRELCYDQDLYILQTALIILEPDLVFLLQFFE | 33500
70 | MLRLYHLMWDSGDYIYTIIGGWLPLPRDLMYVPFPGFYLKYMIFPTPLTLSVL | 43600
71 | LAKARCGCCFQIGSLVELIKLCLLIMLLVVIYFVTVQALIAVLVSSKLCILVP | 43800
72 | LIIPIIMDHLYPVPYMAFWDVSCFVNKVYFMQIVWLFNLPFLLHLLITLICYP | 68100
73 | MSLWISILHTTFLVGYHSIILSLSSPYHYCYLSFLFPIYPFLLGLFVFSLLSS | 56600
74 | DAYLLWGPGFIPTVCHIHDFPLLLPVAIFLVYINLSSCHLDPLISFLFLPLFG | 66500
75 | ANRCSFFALEFSVGISWSTVGADFYVYYPTNTSKRLTFFMTWAGLWISLIFVN | 47200
76 | IVVYGANGGNLGENCNREFSERCVPVFRARATVFAELTWLILVSAWEFKSIRR | 51000
77 | TRTVLFSRGACVILFPWLMYAVGLLLHMIIVNYRLYILYWLLVLKRPIGGFKF | 57500
78 | MAALGGGKYFVCMLTQIVVNFCFLLSVPFSSPPLLLPCYLIIRYSFSFFLFCL | 64700
79 | PYIVYPLKPCLSGPLCELYPSVMNLWAMCLHLILLCIQIPFLLSIPFWLLFPL | 86900
80 | MFCPDVCLVLSIGDVLLAMSYWRCLRETASLFHYHLVPPFELLPLYSVRITAA | 58800
81 | MNVLTFFYVVGGVFFFFTISFALPGGYIVLDLSYYNHIICATYLLLLFEFMFY | 54200
82 | ICVLEKMLLFYFYFPLPFKLTLDQHLSLFSLLCFFFRVMPYTFWLKSYPMLVL | 74200
83 | LKSKSVVSSRTAEEKKEISGALGEGMLQQLVVLLGQVPRIILLILKTNDLTRS | 52200
